Experimental data: patent publication US20210403593A1 (TIZONA THERAPEUTICS, published 2021)

Experiments:
[1] = target: T1, human CD39 (cellular) (human, UniProt P49961 1-510); assay: flow cytometry, 100 nM IgG, MFI on CHO-hCD39 / MFI on parental CHO;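 further: cells exposed to IgG for 30 min on ice in PBS, bound antibody then revealed with a fluorescent goat anti-human IgG secondary (20 min, on ice)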
T1 construct: Same protein on engineered CHO cells and on cells that express it endogenously; also called hCD39; cellular CD39
T1 sequence: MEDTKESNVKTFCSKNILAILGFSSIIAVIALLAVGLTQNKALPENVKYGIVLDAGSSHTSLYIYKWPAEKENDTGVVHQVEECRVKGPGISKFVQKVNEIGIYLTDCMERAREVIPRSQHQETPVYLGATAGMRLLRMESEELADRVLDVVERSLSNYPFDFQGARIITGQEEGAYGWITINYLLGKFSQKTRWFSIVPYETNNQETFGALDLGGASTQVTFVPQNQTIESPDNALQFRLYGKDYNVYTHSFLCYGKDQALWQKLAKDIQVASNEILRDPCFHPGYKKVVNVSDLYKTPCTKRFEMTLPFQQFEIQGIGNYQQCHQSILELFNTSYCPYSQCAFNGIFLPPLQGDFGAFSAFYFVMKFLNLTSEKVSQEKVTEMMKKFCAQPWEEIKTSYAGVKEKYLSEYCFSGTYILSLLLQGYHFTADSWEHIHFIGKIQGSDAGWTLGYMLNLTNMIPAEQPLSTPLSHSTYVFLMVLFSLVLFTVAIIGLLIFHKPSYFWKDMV

[2] = target: T2, cynomolgus macaque (Macaca fascicularis) CD39 (Macaca fascicularis, UniProt P49961 7-510 (human entry)); assay: flow cytometry, 100 nM IgG, MFI on CHO-cCD39 / MFI on parental CHO;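 further: antibodies bound to the cells for 30 min in PBS, then bound IgG was revealed with a fluorescent goat anti-human IgG secondary antibody, 20 min on ice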
T2 construct: On engineered CHO cells and on primary cyno B cells and monocytes; also called cyno CD39; cCD39
T2 chain: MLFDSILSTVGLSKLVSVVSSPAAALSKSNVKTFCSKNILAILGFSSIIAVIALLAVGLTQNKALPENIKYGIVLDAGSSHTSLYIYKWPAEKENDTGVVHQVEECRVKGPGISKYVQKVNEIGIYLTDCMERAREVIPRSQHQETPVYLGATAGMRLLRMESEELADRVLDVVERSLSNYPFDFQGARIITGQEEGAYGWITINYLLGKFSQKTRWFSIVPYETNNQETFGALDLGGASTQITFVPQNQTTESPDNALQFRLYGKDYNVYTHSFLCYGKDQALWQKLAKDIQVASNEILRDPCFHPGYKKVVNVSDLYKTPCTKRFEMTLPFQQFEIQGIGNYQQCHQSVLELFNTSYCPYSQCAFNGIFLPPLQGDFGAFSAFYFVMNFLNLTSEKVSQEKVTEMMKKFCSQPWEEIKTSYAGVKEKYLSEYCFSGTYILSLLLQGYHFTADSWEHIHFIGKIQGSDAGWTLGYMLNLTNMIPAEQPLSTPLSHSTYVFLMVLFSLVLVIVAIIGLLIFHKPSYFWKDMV

B1: 27535 (antibody, human IgG4 S228P, kappa, V domains shown)
VH: QVQLVQSGAEVKKPGSSVKVSCKASGGTFSSYAISWVRQAPGQGLEWMGGIIPIFGTANYAQKFQGRVTITADESTSTAYMELSSLRSEDTAVYYCARDTPRWRYHYFDYWGQGTLVTVSS
VL: EIVLTQSPATLSLSPGERATLSCRASQSVSSYLAWYQQKPGQAPRLLIYDASKRATGIPARFSGSGSGTDFTLTISSLEPEDFAVYYCQQVLNYPLTFGGGTKVEIKR
- Cell Binding (FOB) [1]: 301 fold over background
- Cell Binding (FOB) [2]: 738 fold over background

B2: 27536 (antibody, V domains shown)
VH: QVQLVQSGAEVKKPGSSVKVSCKASGGTFSNYAISWVRQAPGQGLEWMGGIIPIFGTANYAQKFQGRVTITADESTSTAYMELSSLRSEDTAVYYCARDTLYSSGAYYGYNVWGQGTMVTVSS
VL: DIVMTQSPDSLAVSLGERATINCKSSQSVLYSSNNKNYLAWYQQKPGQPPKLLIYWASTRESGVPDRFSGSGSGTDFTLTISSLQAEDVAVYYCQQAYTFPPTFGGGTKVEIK
- Cell Binding (FOB) [1]: 89 fold over background
- Cell Binding (FOB) [2]: 113 fold over background

B3: 27549 (antibody, human IgG4 S228P, kappa, V domains shown)
VH: QVQLVESGGGVVQPGRSLRLSCAASGFTFSSYGMNWVRQAPGKGLEWVAVIWYDGSNKYYADSVKGRFTISRDNSKNTLYLQMNSLRAEDTAVYYCARDLGGYSYGEPYYYYYGMDVWGQGTTVTVSS
VL: EIVLTQSPGTLSLSPGERATLSCRASQSVSSDYLAWYQQKPGQAPRLLIYGASSRATGIPDRFSGSGSGTDFTLTISRLEPEDFAVYYCQQAHSSPYTFGGGTKVEIKR
- Cell Binding (FOB) [1]: 822 fold over background
- Cell Binding (FOB) [2]: 566 fold over background

B4: 27550 (antibody, human IgG4 S228P, kappa, V domains shown)
VH: EVQLVESGGGLVKPGGSLRLSCAASGFTFSSYSMNWVRQAPGKGLEWVSSISSSSSYIYYADSVKGRFTISRDNAKNSLYLQMNSLRAEDTAVYYCARERRGSLALGMDVWGQGTLVTVSS
VL: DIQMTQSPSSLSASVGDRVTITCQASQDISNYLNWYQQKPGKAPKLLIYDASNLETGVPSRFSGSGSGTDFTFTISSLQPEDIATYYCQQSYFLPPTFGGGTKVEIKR
- Cell Binding (FOB) [1]: 2030 fold over background
- Cell Binding (FOB) [2]: 2870 fold over background

B5: 27568 (antibody, human IgG4 S228P, kappa, V domains shown)
VH: QVQLVQSGAEVKKPGSSVKVPCKASGGTFSSYAISWVRQAPEQGLEWMGSIIPIFGTANYAQKFQGRVTITADESTSTAYMELSSLRSEDTAVYYCAGESGGYRDHKLDVWGQGTVVTVSS
VL: EIVLTQSPATLSLSPGERATLSCRASQSVSSYLAWYQQKPGQAPRLLIYDASNRATGIPARFSGSGSGTDFTLTISSLEPEDFAVYYCQQSVFWPITFGGGTKVEIKR
- Cell Binding (FOB) [1]: 267 fold over background
- Cell Binding (FOB) [2]: 260 fold over background

B6: 27587 (antibody, human IgG4 S228P, kappa, V domains shown)
VH: QVQLVQSGAEVKKPGSSVKVSCKASGGTFSSYAISWVRQAPGQGLEWMGSIIPIFGTANYAQKFQGRVTITADESTSTAYMELSSLRSEDTAVYYCARESGGYRDHKLDVWGQGTMVTVSS
VL: EIVLTQSPATLSLSPGERATLSCRASQSVSSYLAWYQQKPGQAPRLLIYDASKRATGIPARFSGSGSGTDFTLTISSLEPEDFAVYYCQQDVLWPLTFGGGTKVEIKR
- Cell Binding (FOB) [1]: 1450 fold over background
- Cell Binding (FOB) [2]: 1400 fold over background

B7: 27571 (antibody, V domains shown)
VH: QVQLVQSGAEVKKPGSSVKASCKASGGTFSSYAISWVRQAPGQGLEWMGSIIPIFGTANYAQKFRGRVTITADESTSTTYMELSSLRSEDTAVYYCARESGGYRDHRLDVWGQGTMVTVSS
VL: EIVMTQSPATLSVSPGERATLSCRASQSVGSNLAWYQQKPGQAPRLLIYGASTRATGIPARFSGSGSGTEFTLTISSLQSEDFAVYYCQQYLIWPLTFGGGTKVEIK
- Cell Binding (FOB) [1]: 1400 fold over background
- Cell Binding (FOB) [2]: 1610 fold over background

B8: 27577 (antibody, human IgG4 S228P, kappa, V domains shown)
VH: QVQLVQSGAEVKKPGSSVKVSCKASGGAFSSYAIGWVRQAPGQGLEWMGGIIPTFGTANYAQKFQGRVTITADESTSTAYMELSSLRSEDTAVYYCARDGGGYQHHYFDLWGRGTLVTVSS
VL: EIVMTQSPATLSVSPGERATLSCRASQSVGSNLAWYQQKPGQAPRLLIYGASTRATGIPARFSGSGSGTEFTLTISSLQSEDFAVYYCQQLTKWPLTFGGGTKVEIKR
- Cell Binding (FOB) [1]: 390 fold over background
- Cell Binding (FOB) [2]: 339 fold over background
